Target: T1, Ebola virus GPCL trimer (thermolysin-cleaved, purified GP ectodomain) (Ebola virus (Zaire ebolavirus); GP1 …)
T1 chain 1: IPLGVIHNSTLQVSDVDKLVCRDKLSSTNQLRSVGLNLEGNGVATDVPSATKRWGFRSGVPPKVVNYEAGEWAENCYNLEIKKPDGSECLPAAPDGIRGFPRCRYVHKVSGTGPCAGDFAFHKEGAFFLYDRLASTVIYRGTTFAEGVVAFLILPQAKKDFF
T1 chain 2: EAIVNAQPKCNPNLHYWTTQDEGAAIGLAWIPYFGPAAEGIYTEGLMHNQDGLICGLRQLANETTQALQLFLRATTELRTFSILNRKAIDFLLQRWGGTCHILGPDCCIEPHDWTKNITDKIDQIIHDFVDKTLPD
Experiment: crystal structure

B1: KZ52 Fab (Fab, V domains shown)
VH: EVQLLESGGGLVKPGGSLRLSCAASGFTLINYRMNWVRQAPGKGLEWVSSISSSSSYIHYADSVKGRFTISRDNAENSLYLQMNSLRAEDTAVYYCVREGPRATGYSMADVFDIWGQGTMVTVSS
VL: not shown
B1: binds.
